From US8759482B2, “Kinetically efficient substrate for lipoic acid ligase” (Massachusetts Institute of Technology, priority 2009, dated 2014)

Substrate: CC[C@H](C)[C@H](NC(=O)[C@H](CCC(=O)O)NC(=O)[C@H](Cc1ccccc1)NC(=O)CN)C(=O)N[C@@H](CC(=O)O)C(=O)N[C@@H](CCCCN)C(=O)N[C@H](C(=O)N[C@@H](Cc1c[nH]c2ccccc12)C(=O)N[C@@H](Cc1ccc(O)cc1)C(=O)N[C@@H](CC(=O)O)C(=O)N[C@@H](CC(C)C)C(=O)N[C@@H](CC(=O)O)C(=O)N[C@@H](C)C(=O)O)C(C)C
Test: Lp1A-catalyzed lipoylation kinetics (kcat, Km) by HPLC
Assay type: biochemical, Escherichia coli
Conditions: other: synthetic LAP2 peptide, 50 nM Lp1A, 750 μM lipoic acid, 30° C.
Procedure: Various concentrations of synthetic LAP2 peptide (not a fusion protein) were lipoylated with 50 nM Lp1A, 750 μM lipoic acid, and 3 mM ATP, and initial reaction rates were measured by HPLC. […] Measurements were performed in triplicate.
Using HPLC to quantify product formation, the kcat and Km values were measured for Lp1A-catalyzed lipoylation of a synthetic LAP2 peptide (without an attached fusion protein).
To measure the kcat and Km values for lipoylation, 50 nM Lp1A was combined with 750 μM lipoic acid, 2 mM ATP, and 5 mM magnesium acetate in DPBS. Varying concentrations of LAP2 (5.5, 11, 22, 44, 88, 176, or 352 μM) were used; 60 μL aliquots were removed from the 30° C. reactions at 5 min intervals, up to 20 min, and quenched with 180 mM EDTA (final concentration). HPLC was used to determine the amount of product in each aliquot, and kinetic parameters were extracted using the Michaelis-Menten equation as described previously.^13,28

B1: Escherichia coli lipoic acid ligase (Lp1A) (Escherichia coli K-12) (protein)
chain: MSTLRLLISDSYDPWFNLAVEECIFRQMPATQRVLFLWRNADTVVIGRAQNPWKECNTRRMEEDNVRLARRSSGGGAVFHDLGNTCFTFMAGKPEYDKTISTSIVLNALNALGVSAEASGRNDLVVKTVEGDRKVSGSAYRETKDRGFHHGTLLLNADLSRLANYLNPDKKKLAAKGITSVRSRVTNLTELLPGITHEQVCEAITEAFFAHYGERVEAEIISPNKTPDLPNFAETFARQSSWEWNFGQAPAFSHLLDERFTWGGVELHFDVEKGHITRAQVFTDSLNPAPLEALAGRLQGCLYRADMLQQECEALLVDFPEQEKELRELSAWMAGAVR
Km: 13.32 ± 1.78 µM
kcat: 0.22 s⁻¹
kcat/Km: 16500 M⁻¹ s⁻¹
